# Test results as given in patent US20090233993A1, “COMPOSITIONS AND METHODS FOR INHIBITING GSK3 ACTIVITY AND USES THEREOF” (Burnham Institute for Medical Research, priority 2008, published 2009).
# Entries after “also recorded” stand apart in the source; their conditions may differ.
# B1: FG01: 141 amino acid transmembrane protein encoded by mouse retrogene fg01 (SEQ ID NO:2); expressed from transfected vector or transgene (protein)
# chain: MQSQQRNIGYFNHLKADSRNITYSMTFSTKSSNQNFIIFLNEVQAAIIGHERCDLLPVLNELHPDALPDGRIWLFGLNPYFFQHNSLCMRGTPKRIGLQGCAQVGFLVLFVMPLLIPSVTAELPGSSETTTLAHLAGATGP
# modifications: Myc and His6 tags; homo sapien
# notes: expressed from transfected vector or transgene
# Tests used:
# GSK-3α/β = test: phospho-GSK-3α/β Western blot in rat PC12 cells; format: cell-based; conditions: FG01 overexpression
# Excerpt: Although the possibility that FG01 may modulate substrate specificity or accessibility to γ-secretase can not be excluded, it is equally possible that FG01 regulates other proteins/pathways functioning in APP processing and Aβ generation. […] Thus, the activities of GSK-3α/β were studied in the presence or absence of FG01 overexpression by examining levels of phospho-GSK-3α (Ser 21) and phospho-GSK-3β (Ser 9) (which represent inactivated forms of GSK-3) and by in vitro kinase assays.
# β-secretase (BACE1) = β-secretase (BACE1) in vitro activity and protein level in FG01-overexpressing cells; format: cell-based, mouse
# Procedure: The in vitro activity of β-secretase (BACE1) was assayed using a commercial kit (Calbiochem), following the manufacturer's protocol.
# To determine whether FG01 reduces Aβ generation by modulating β-secretase activities, β-secretase (BACE1) activity and the protein level of BACE1 in vitro in FG01-overexpressing cells was examined and both were unchanged. FG01 cell clones identified by RHKO were treated with DMSO (control) or 2 μg/ml doxycycline for 72 hrs. In some experiments, N2a cells were transfected with control vector (Con) or FG01 vector for 48 hrs. Cell lysates were assayed for β-secretase activity. FG01 was transfected into N2a cells and equal protein lysates were subjected to SDS-PAGE and Western blot with antibodies against BACE1 (Yan et al., 2001), nicastrin (Leem et al., 2002) or Myc. APP βCTF accumulation can also be attributed to a decrease in γ-secretase-mediated cleavage.
# APP = APP trafficking to cell surface (biotinylation) in N2a/swe cells; format: cell-based, mouse; conditions: FG01-transfected N2a/swe cells
# Excerpt: After treated with biotin or DMSO, membrane protein and total cell lysates were subjected to Western blots for APP.
# β-catenin = β-catenin level in human HEK293 cells (Western blot); format: cell-based; conditions: FG01 expression
# Excerpt: Expression of β-catenin, inactivated phospho-GSK-3β, total GSK-3, APP, β-CTF and FG01 in transfected human HEK293 cells were shown by Western blots.
# γ-secretase = γ-secretase cleavage on Notch (NICD generation) and nicastrin level; format: cell-based, mouse
# Excerpt: The levels of the recombinant Notch (NotchΔE with Myc-tag) and the γ-secretase cleaved Notch fragment (NICD) were quantified by Western blotting using myc antibody and an antibody specific to processed Notch followed by densitometry. […] The results represent at least four independent experiments.
# N2a cells were transfected with Myc-tagged Notch1 NΔE construct lacking the ectodomain, which allows ligand-independent processing by γ-secretase to produce NICD (Schroeter et al., 1998). NICD generation was analyzed by immunoblot with an antibody specifically recognizing the cleaved Notch product NICD (Cell Signaling Technology).
# Cleavage of Notch, another important γ-secretase substrate (Kopan and Goate, 2000), was not altered by FG01 overexpression. N2a cells were transfected with Myc-tagged Notch1 NΔE construct. After equal splitting, cells were transfected with control vector (Con) or FG01. Cell lysates were subjected to SDS-PAGE and Western blot with the Myc antibody (recognizing both exogenous FG01 and Notch NΔE) and with an NICD-specific antibody. Protein levels of nicastrin, an important component of the γ-secretase complex, were also not affected by FG01 overexpression.
# cAMP levels = test: cAMP assay in mouse N2a cells; format: cell-based; conditions: FG01 overexpression
# Excerpt: After 48-72 hrs, cells were lysed and cell lysates were subjected to immunoprecipitation with mouse IgG, rabbit IgG, myc antibody and adenylyl cyclase (AC) antibody (Santa Cruz Biotechnology, catalog number sc-1701), and then immunoblotted with antibodies against adenylyl cyclase (AC) and myc, respectively.
# Commercial kits were used to assay in vitro activities of GSK-3β (Sigma) and PKA (Upstate). For GSK-3α activity, a commercial GSK-3β activity assay kit was used but the procedure to immunoprecititate GSK-3β was replaced with immunoprecipitation of GSK-3α using an anti-GSK-3α antibody (Cell Signaling). cAMP levels were assayed using a commercial kit (Biovision).
# tau = tau phosphorylation (Thr205, PHF-1) in N2aSwe cells cotransfected with human tau T40; format: cell-based
# Procedure: Since GSK-3 can phosphorylate tau at multiple sites, it was determined whether FG01 can affect tau phosphorylation by GSK-3. The human longest tau splicing variant T40 was cotransfected with FG01 or expression vector (control) into N2aSwe cells, and the tau phosphorylation examined at Thr205 and PHF-1 tauepitope (Ser396 and Ser404), which are GSK-3 phosphorylation targets and major paired helical filament (PHF) tau sites found in NFTs. […] In addition, little change was found in CDK5 protein level and its in vitro activity upon FG01 overexpression.
# The human tau T40 was co-transfected with either FG01 or the expression vector into N2aSwe cells. The phospho-tau at Thr205 and PHF-1 and total tau proteins in the transfected cells were detected by Western blots (left). The levels of phospho-tau at the examined sites were quantified by densitometry and normalized to the total levels (right).
# GSK-3 is a major kinase that phosphorylates tau in AD (Flaherty et al., 2000). […] N2aSwe cells were cotransfected with the human tau splice variant T40 and with FG01 (or control vectors), and examined tau phosphorylation at the threonine 205 site (Thr205) and the PHF-1 tau epitope sites (serine 396 and serine 404), which are GSK-3 phosphorylation targets, and at the major paired helical filament (PHF) sites found in NFTs. […] Protein levels and activity of CDK5, another kinase mediating tau phosphorylation in AD (Flaherty et al., 2000), was analyzed following FG01 overexpression. […] N2a cells were transfected with FG01 or a control vector (Con). Equal cell lysate proteins were used for assaying in vitro CDK5 activity.
# Aβ generation = Aβ generation / APP processing in HeLaSwe cells expressing FG01 (Western blot, ELISA); format: cell-based, human
# Procedure: Expression of secreted Aβ, sAPPα, β-CTF, total APP, α-tubulin and FG01 were detected by Western blots.
# HeLa/swe cells were transfected with GSK-3β and/or FG01 as indicated. The levels of Aβ40/42 were determined by modified ELISA. The expression of GSK-3β and β-catenin were shown by Western blots. n=4.
# HeLaSwe cells were transfected with FG01 or controls. Conditioned media and lysates from these cells were collected. The levels of Aβ40 and Aβ42 were quantified using ELISA kits (Invitrogen), following the manufacturer's protocols.
# To corroborate this, FG01 was over expressed in N2aSwe cells.
# [1] = human tau T40 cotransfected with FG01
# [2] = ELISA, HeLaSwe cells, FG01 expression
molecule,measurement,setting,value
B1,phospho-GSK-3α (Ser21) and phospho-GSK-3β (Ser9) levels,GSK-3α/β,more highly phosphorylated
same,protein level of BACE1,"β-secretase (BACE1); FG01-overexpressing N2a cells, Western blot",unchanged
same,β-secretase (BACE1) activity,"β-secretase (BACE1); in vitro assay, FG01-overexpressing cells",did not significantly change; also recorded: unchanged
same,APP trafficking to cell surface,APP,stimulates
same,level of β-catenin,β-catenin,increases
same,protein levels of nicastrin,γ-secretase; FG01 overexpression in N2a cells,not affected
same,Notch cleavage,γ-secretase; Notch ΔE cotransfected with FG01,not altered
same,increase of cAMP levels,cAMP levels,38%
same,total tau levels,tau; [1],without affecting
same,unphosphorylated tau levels,tau; [1],increased
same,tau phosphorylation at GSK-3 target sites,tau; human tau T40 cotransfected with FG01 in N2aSwe cells,significantly decreased
same,"decrease of tau phosphorylation at Thr205 and PHF-1 epitope (Ser396, Ser404)","tau; human tau T40 cotransfected with FG01 in N2aSwe cells, densitometry",~60%
same,Aβ40 level,Aβ generation; [2],significantly reduced
same,Aβ42 level,Aβ generation; [2],significantly reduced
same,effects of overexpression of GSK-3β on Aβ production,"Aβ generation; HeLa/swe cells transfected with GSK-3β and/or FG01, Aβ40/42 ELISA",suppressed
same,Aβ levels / Aβ generation,Aβ generation; mouse FG01 expressed in HeLa cells with APP Swedish mutant,decreases; also recorded: reduced Aβ generation
same,accumulation of sAPPα,Aβ generation; mouse FG01 in HeLaSwe cells,increased accumulation
same,accumulation of βCTF,Aβ generation; mouse FG01 in HeLaSwe cells,increased accumulation
